Results on 3 molecules are retold here after US20120277143A1.

The target of experiment [1] is cyno IL13 (cynomolgus monkey) (UniProt Q0PW92). The experiment in a line: cell-based or functional assay.
Experiment [2] addresses human IL13 (human) (UniProt P35225). The experiment in a line: cell-based or functional assay.
Experiment [3] has the same target. The experiment can be described thus: SPR BIAcore, biotin-IL13 on SA chip, global fit. (SPR reads the build-up and loss of mass on a sensor chip optically.)
The next experiment deals with human IL13 R130Q (human) (UniProt P35225). The experiment in a line: Luminex competition, 80 pM biotin-IL13 R130Q binding to IL13Ra2-Fc beads.
human IL13 R130Q (human), sequence (P35225 35-146 limits assumed, stated change not applied): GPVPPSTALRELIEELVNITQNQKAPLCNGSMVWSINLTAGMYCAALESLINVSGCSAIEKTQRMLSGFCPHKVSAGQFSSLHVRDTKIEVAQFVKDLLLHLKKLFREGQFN

human IL13 (human), sequence (P35225 other isoform, or with tags, fused parts or gaps limits assumed): as the sequence (P35225 35-146 limits assumed, stated change not applied) above, with Q110R counted along it
cyno IL13 (cynomolgus monkey), sequence (Q0PW92 entry or part of it): as the sequence (P35225 35-146 limits assumed, stated change not applied) above, with G1S, R10K, M42V, S67N, H83R, L100V counted along it

B1: 7H3 (designed binder, part only; not given: N-cap, C-cap, His tag, part only)
chain, part: TDMYGSTPLHLAARHGHLEIVEVLLKYGADVNAFDFIGDTPLHLAAYRGHLEIVEVLLKYGVDVNADDHYGDTPLHLAASMGHLEIVEVLLKNGADVNA
B1 returned a Cyno IL13 STAT6 IC50 in experiment [1] of 0.388 nM. In the experiment with human IL13 (human) [2], this molecule yielded an STAT6 Phospho IC50 of 0.0253 nM and a TARC expression IC50 of 0.0696 nM. Also, in the experiment with human IL13 (human) [3], the Kd worked out at 0.131 nM, the koff was 0.00056 s⁻¹ and the kon came out at 4.26e+06 M⁻¹ s⁻¹. For the same molecule, the IC50 with human IL13 R130Q (human) came to 0.0669 nM.

B2: 5D3 (designed binder, part only; not given: N-cap, C-cap, His tag, part only)
chain, part: WDSYGSTPLHLAAREGHLEIVEVLLKYGADVNAKDMIGDTPLHLAAYRGHLEIVEVLLKYGVDVNADDHYGDTPLHLAASMGHLEIVEVLLKNGADVNA
In experiment [1], B2 registered a Cyno IL13 STAT6 IC50 of 3.02 nM. In the experiment with human IL13 (human) [2], the STAT6 Phospho IC50 was determined as 0.0169 nM and the TARC expression IC50 was 0.0883 nM. Moreover, in the experiment with human IL13 (human) [3], the Kd is 0.164 nM, the koff is 0.000144 s⁻¹ and the kon was determined as 877000 M⁻¹ s⁻¹. The molecule also came in with a half-inhibitory concentration (IC50) with human IL13 R130Q (human) of 0.0375 nM.

B3: 5D2 (designed binder, part only; not given: N-cap, C-cap, His tag, part only)
chain, part: KDLFGSTPLHLAARHGHLEIVEVLLKNGADVNAEDFIGDTPLHLAAYRGHLEIVEVLLKYGVDVNADDHYGDTPLHLAASMGHLEIVEVLLKNGADVNA
In experiment [1], B3 returned a Cyno IL13 STAT6 IC50 of 0.224 nM. Further, in the experiment with human IL13 (human) [2], the STAT6 Phospho IC50 amounted to 0.0203 nM and the TARC expression IC50 came out at 0.0714 nM. Besides, in the experiment with human IL13 (human) [3], the Kd was 0.145 nM, the dissociation rate constant (koff) amounted to 0.000218 s⁻¹ and the kon was 1.51e+06 M⁻¹ s⁻¹. The molecule further registered a concentration for half-maximal inhibition (IC50) with human IL13 R130Q (human) of 0.0322 nM.

As usually defined, the Kd is the free concentration of one partner at which half of the binding sites on the other are occupied at equilibrium, for simple one-to-one binding. A word on the koff: it is the first-order rate constant of dissociation. Low values mean a long-lived complex, high ones a short-lived complex. Broadly, the kon is the rate constant with which the complex forms. Usually IC50 stands for the midpoint of a concentration-inhibition curve. A lower IC50 goes with higher potency.
